For five proteins, localisation_or_trafficking results are on record in publication PMC5994540.

First the molecules themselves.
B1: GluN3A subunit: N426Q (protein)
parent chain: MRRLSLWWLLSRVCLLLPPPCALVLAGVPSSSSHPQPCQILKRIGHAVRVGAVHLQPWTTAPRAASRAQEGGRAGAQRDDPESGTWRPPAPSQGARWLGSALHGRGPPGSRKLGEGAGAETLWPRDALLFAVENLNRVEGLLPYNLSLEVVMAIEAGLGDLPLMPFSSPSSPWSSDPFSFLQSVCHTVVVQGVSALLAFPQSQGEMMELDLVSSVLHIPVLSIVRHEFPRESQNPLHLQLSLENSLSSDADVTVSILTMNNWYNFSLLLCQEDWNITDFLLLTENNSKFHLESVINITANLSSTKDLLSFLQVQMDNIRNSTPTMVMFGCDMDSIRQIFEMSTQFGLSPPELHWVLGDSQNVEELRTEGLPLGLIAHGKTTQSVFEYYVQDAMELVARAVATATMIQPELALLPSTMNCMDVKTTNLTSGQYLSRFLANTTFRGLSGSIKVKGSTIISSENNFFIWNLQHDPMGKPMWTRLGSWQGGRIVMDSGIWPEQAQRHKTHFQHPNKLHLRVVTLIEHPFVFTREVDDEGLCPAGQLCLDPMTNDSSMLDRLFSSLHSSNDTVPIKFKKCCYGYCIDLLEQLAEDMNFDFDLYIVGDGKYGAWKNGHWTGLVGDLLSGTANMAVTSFSINTARSQVIDFTSPFFSTSLGILVRTRDTAAPIGAFMWPLHWTMWLGIFVALHITAIFLTLYEWKSPFGMTPKGRNRNKVFSFSSALNVCYALLFGRTAAIKPPKCWTGRFLMNLWAIFCMFCLSTYTANLAAVMVGEKIYEELSGIHDPKLHHPSQGFRFGTVRESSAEDYVRQSFPEMHEYMRRYNVPATPDGVQYLKNDPEKLDAFIMDKALLDYEVSIDADCKLLTVGKPFAIEGYGIGLPPNSPLTSNISELISQYKSHGFMDVLHDKWYKVVPCGKRSFAVTETLQMGIKHFSGLFVLLCIGFGLSILTTIGEHIVHRLLLPRIKNKSKLQYWLHTSQRFHRALNTSFVEEKQPRSKTKRVEKSRWRRWTCKTEGDSELSLFPRSNLGPQQLMVWNTSNLSHDNQRKYIFNDEEGQNQLGTQAHQDIPLPQRRRELPASLTTNGKADSLNVTRSSVIQELSELEKQIQVIRQELQLAVSRKTELEEYQKTNRTCES
B2: GluN3A subunit: N549Q (protein)
parent chain: MRRLSLWWLLSRVCLLLPPPCALVLAGVPSSSSHPQPCQILKRIGHAVRVGAVHLQPWTTAPRAASRAQEGGRAGAQRDDPESGTWRPPAPSQGARWLGSALHGRGPPGSRKLGEGAGAETLWPRDALLFAVENLNRVEGLLPYNLSLEVVMAIEAGLGDLPLMPFSSPSSPWSSDPFSFLQSVCHTVVVQGVSALLAFPQSQGEMMELDLVSSVLHIPVLSIVRHEFPRESQNPLHLQLSLENSLSSDADVTVSILTMNNWYNFSLLLCQEDWNITDFLLLTENNSKFHLESVINITANLSSTKDLLSFLQVQMDNIRNSTPTMVMFGCDMDSIRQIFEMSTQFGLSPPELHWVLGDSQNVEELRTEGLPLGLIAHGKTTQSVFEYYVQDAMELVARAVATATMIQPELALLPSTMNCMDVKTTNLTSGQYLSRFLANTTFRGLSGSIKVKGSTIISSENNFFIWNLQHDPMGKPMWTRLGSWQGGRIVMDSGIWPEQAQRHKTHFQHPNKLHLRVVTLIEHPFVFTREVDDEGLCPAGQLCLDPMTNDSSMLDRLFSSLHSSNDTVPIKFKKCCYGYCIDLLEQLAEDMNFDFDLYIVGDGKYGAWKNGHWTGLVGDLLSGTANMAVTSFSINTARSQVIDFTSPFFSTSLGILVRTRDTAAPIGAFMWPLHWTMWLGIFVALHITAIFLTLYEWKSPFGMTPKGRNRNKVFSFSSALNVCYALLFGRTAAIKPPKCWTGRFLMNLWAIFCMFCLSTYTANLAAVMVGEKIYEELSGIHDPKLHHPSQGFRFGTVRESSAEDYVRQSFPEMHEYMRRYNVPATPDGVQYLKNDPEKLDAFIMDKALLDYEVSIDADCKLLTVGKPFAIEGYGIGLPPNSPLTSNISELISQYKSHGFMDVLHDKWYKVVPCGKRSFAVTETLQMGIKHFSGLFVLLCIGFGLSILTTIGEHIVHRLLLPRIKNKSKLQYWLHTSQRFHRALNTSFVEEKQPRSKTKRVEKSRWRRWTCKTEGDSELSLFPRSNLGPQQLMVWNTSNLSHDNQRKYIFNDEEGQNQLGTQAHQDIPLPQRRRELPASLTTNGKADSLNVTRSSVIQELSELEKQIQVIRQELQLAVSRKTELEEYQKTNRTCES
B3: GluN3A subunit: N565Q (protein)
parent chain: MRRLSLWWLLSRVCLLLPPPCALVLAGVPSSSSHPQPCQILKRIGHAVRVGAVHLQPWTTAPRAASRAQEGGRAGAQRDDPESGTWRPPAPSQGARWLGSALHGRGPPGSRKLGEGAGAETLWPRDALLFAVENLNRVEGLLPYNLSLEVVMAIEAGLGDLPLMPFSSPSSPWSSDPFSFLQSVCHTVVVQGVSALLAFPQSQGEMMELDLVSSVLHIPVLSIVRHEFPRESQNPLHLQLSLENSLSSDADVTVSILTMNNWYNFSLLLCQEDWNITDFLLLTENNSKFHLESVINITANLSSTKDLLSFLQVQMDNIRNSTPTMVMFGCDMDSIRQIFEMSTQFGLSPPELHWVLGDSQNVEELRTEGLPLGLIAHGKTTQSVFEYYVQDAMELVARAVATATMIQPELALLPSTMNCMDVKTTNLTSGQYLSRFLANTTFRGLSGSIKVKGSTIISSENNFFIWNLQHDPMGKPMWTRLGSWQGGRIVMDSGIWPEQAQRHKTHFQHPNKLHLRVVTLIEHPFVFTREVDDEGLCPAGQLCLDPMTNDSSMLDRLFSSLHSSNDTVPIKFKKCCYGYCIDLLEQLAEDMNFDFDLYIVGDGKYGAWKNGHWTGLVGDLLSGTANMAVTSFSINTARSQVIDFTSPFFSTSLGILVRTRDTAAPIGAFMWPLHWTMWLGIFVALHITAIFLTLYEWKSPFGMTPKGRNRNKVFSFSSALNVCYALLFGRTAAIKPPKCWTGRFLMNLWAIFCMFCLSTYTANLAAVMVGEKIYEELSGIHDPKLHHPSQGFRFGTVRESSAEDYVRQSFPEMHEYMRRYNVPATPDGVQYLKNDPEKLDAFIMDKALLDYEVSIDADCKLLTVGKPFAIEGYGIGLPPNSPLTSNISELISQYKSHGFMDVLHDKWYKVVPCGKRSFAVTETLQMGIKHFSGLFVLLCIGFGLSILTTIGEHIVHRLLLPRIKNKSKLQYWLHTSQRFHRALNTSFVEEKQPRSKTKRVEKSRWRRWTCKTEGDSELSLFPRSNLGPQQLMVWNTSNLSHDNQRKYIFNDEEGQNQLGTQAHQDIPLPQRRRELPASLTTNGKADSLNVTRSSVIQELSELEKQIQVIRQELQLAVSRKTELEEYQKTNRTCES
B4: GluN3A subunit: N886Q (protein)
parent chain: MRRLSLWWLLSRVCLLLPPPCALVLAGVPSSSSHPQPCQILKRIGHAVRVGAVHLQPWTTAPRAASRAQEGGRAGAQRDDPESGTWRPPAPSQGARWLGSALHGRGPPGSRKLGEGAGAETLWPRDALLFAVENLNRVEGLLPYNLSLEVVMAIEAGLGDLPLMPFSSPSSPWSSDPFSFLQSVCHTVVVQGVSALLAFPQSQGEMMELDLVSSVLHIPVLSIVRHEFPRESQNPLHLQLSLENSLSSDADVTVSILTMNNWYNFSLLLCQEDWNITDFLLLTENNSKFHLESVINITANLSSTKDLLSFLQVQMDNIRNSTPTMVMFGCDMDSIRQIFEMSTQFGLSPPELHWVLGDSQNVEELRTEGLPLGLIAHGKTTQSVFEYYVQDAMELVARAVATATMIQPELALLPSTMNCMDVKTTNLTSGQYLSRFLANTTFRGLSGSIKVKGSTIISSENNFFIWNLQHDPMGKPMWTRLGSWQGGRIVMDSGIWPEQAQRHKTHFQHPNKLHLRVVTLIEHPFVFTREVDDEGLCPAGQLCLDPMTNDSSMLDRLFSSLHSSNDTVPIKFKKCCYGYCIDLLEQLAEDMNFDFDLYIVGDGKYGAWKNGHWTGLVGDLLSGTANMAVTSFSINTARSQVIDFTSPFFSTSLGILVRTRDTAAPIGAFMWPLHWTMWLGIFVALHITAIFLTLYEWKSPFGMTPKGRNRNKVFSFSSALNVCYALLFGRTAAIKPPKCWTGRFLMNLWAIFCMFCLSTYTANLAAVMVGEKIYEELSGIHDPKLHHPSQGFRFGTVRESSAEDYVRQSFPEMHEYMRRYNVPATPDGVQYLKNDPEKLDAFIMDKALLDYEVSIDADCKLLTVGKPFAIEGYGIGLPPNSPLTSNISELISQYKSHGFMDVLHDKWYKVVPCGKRSFAVTETLQMGIKHFSGLFVLLCIGFGLSILTTIGEHIVHRLLLPRIKNKSKLQYWLHTSQRFHRALNTSFVEEKQPRSKTKRVEKSRWRRWTCKTEGDSELSLFPRSNLGPQQLMVWNTSNLSHDNQRKYIFNDEEGQNQLGTQAHQDIPLPQRRRELPASLTTNGKADSLNVTRSSVIQELSELEKQIQVIRQELQLAVSRKTELEEYQKTNRTCES
B5: GluN3A subunit: N439Q (protein)
parent chain: MRRLSLWWLLSRVCLLLPPPCALVLAGVPSSSSHPQPCQILKRIGHAVRVGAVHLQPWTTAPRAASRAQEGGRAGAQRDDPESGTWRPPAPSQGARWLGSALHGRGPPGSRKLGEGAGAETLWPRDALLFAVENLNRVEGLLPYNLSLEVVMAIEAGLGDLPLMPFSSPSSPWSSDPFSFLQSVCHTVVVQGVSALLAFPQSQGEMMELDLVSSVLHIPVLSIVRHEFPRESQNPLHLQLSLENSLSSDADVTVSILTMNNWYNFSLLLCQEDWNITDFLLLTENNSKFHLESVINITANLSSTKDLLSFLQVQMDNIRNSTPTMVMFGCDMDSIRQIFEMSTQFGLSPPELHWVLGDSQNVEELRTEGLPLGLIAHGKTTQSVFEYYVQDAMELVARAVATATMIQPELALLPSTMNCMDVKTTNLTSGQYLSRFLANTTFRGLSGSIKVKGSTIISSENNFFIWNLQHDPMGKPMWTRLGSWQGGRIVMDSGIWPEQAQRHKTHFQHPNKLHLRVVTLIEHPFVFTREVDDEGLCPAGQLCLDPMTNDSSMLDRLFSSLHSSNDTVPIKFKKCCYGYCIDLLEQLAEDMNFDFDLYIVGDGKYGAWKNGHWTGLVGDLLSGTANMAVTSFSINTARSQVIDFTSPFFSTSLGILVRTRDTAAPIGAFMWPLHWTMWLGIFVALHITAIFLTLYEWKSPFGMTPKGRNRNKVFSFSSALNVCYALLFGRTAAIKPPKCWTGRFLMNLWAIFCMFCLSTYTANLAAVMVGEKIYEELSGIHDPKLHHPSQGFRFGTVRESSAEDYVRQSFPEMHEYMRRYNVPATPDGVQYLKNDPEKLDAFIMDKALLDYEVSIDADCKLLTVGKPFAIEGYGIGLPPNSPLTSNISELISQYKSHGFMDVLHDKWYKVVPCGKRSFAVTETLQMGIKHFSGLFVLLCIGFGLSILTTIGEHIVHRLLLPRIKNKSKLQYWLHTSQRFHRALNTSFVEEKQPRSKTKRVEKSRWRRWTCKTEGDSELSLFPRSNLGPQQLMVWNTSNLSHDNQRKYIFNDEEGQNQLGTQAHQDIPLPQRRRELPASLTTNGKADSLNVTRSSVIQELSELEKQIQVIRQELQLAVSRKTELEEYQKTNRTCES

The series in a line: surface/total immunofluorescence, COS-7, with GluN1-4a. The settings on record: glycan lost; control: wild-type GluN1/GluN3A.
Take B1: the localisation_or_trafficking entry is given as “no change”.

With B2, the localisation_or_trafficking result is given as “no change”. As for B3, the entry is “no change”; as for B4, “no change”; as for B5, “no change”.
